The results in this text go back to US20120028900A1.

pKd: −log10 of the molar value. A value given as a limit tells only on which side of the number the result lay.

In series [1] the target is A1/A3-C1-C2 heterodimer of thrombin-cleaved FVIII (human) (UniProt P00451). As to the kind of experiment: optical biosensor, after thrombin cleavage of purified protein.
Series [2] has as its target IR8 (90/b/73 R336I/R562K/R740A; del795-1688/Arg336Iso/Arg562Lys/Arg740Ala) (human) (UniProt P00451). As to the kind of experiment: cell-based or functional assay.
Another series concerns the target wild-type FVIII (human) (UniProt P00451). Nature of the series: cell-based or functional assay.
The target in series [3] is von Willebrand factor (vWF) (human) (UniProt P04275). Nature of the series: ELISA and affinity biosensor analysis. (In general: ELISA stands for enzyme-linked immunosorbent assay.)
Series [4] shares this target. Nature of the series: summary of ELISA and biosensor results.
Series [5] has the same target. Nature of the series: FVIII-vWF binding ELISA; anti-A2 domain trap, vWF from FVIII-deficient plasma, peroxidase anti-vWF detection.
For series [6] the target is unchanged. Nature of the series: in vitro binding to vWF; method not given.
Series [7] has as its target FVIII mutant L/L 2251/2252 L/S (L2252S) (UniProt P00451).
Series [8] deals with FVIII mutant M/F 2199/2200 W/W (UniProt P00451).
Series [9] deals with FVIII mutant M/F/L 2199/2200/2252 W/W/S (UniProt P00451).
Series [10] concerns the target IR8 (90/b/73 R336I/R562K/R740A; del795-1688/Arg336Iso/Arg562Lys/Arg740Ala) (human) (UniProt P00451). As to the kind of experiment: biosensor; IR8 (30 nM) captured on immobilised Mab NMC-VIII/5, vWF added at 10 nM.

Take “A2 subunit of thrombin-cleaved R698L B-domainless FVIII (from UniProt P00451 392-759)”: in series [1], the fold increased rate of A2 subunit dissociation compared to a B domainless FVIII control is 2 fold.

As to “A2 subunit of thrombin-cleaved R698W B-domainless FVIII (from UniProt P00451 392-759)”, in series [1], the fold increased rate of A2 subunit dissociation compared to a B domainless FVIII control came out at 3 fold.

With “ESH8, mouse monoclonal anti-light chain factor VIII antibody (American Diagnostica)”, the results for the % Of Initial Activity, +ESH8 (APTT after 4 hour incubation at 37 C with FVIII-deficient plasma) (in series [2]; with wild-type FVIII (human)) were 120% and 29%, respectively.

In [3], “IR8 (90/b/73 R336I/R562K/R740A; del795-1688/Arg336Iso/Arg562Lys/Arg740Ala) (from UniProt P00451 20-812; P00451 1708-2351)” showed a fold reduced affinity compared to rFVIII of 20 fold. For the same substance, the fold lower affinity than FVIII WT in series [4] was over 10 fold. Moreover, the fold lower binding affinity compared to wild-type FVIII in series [5] was found to be 10 fold.

In general, pKd refers to the negative decadic logarithm of the Kd, by convention in mol/L. Read a high pKd as a small Kd. “IR8/ESH8 complex (from UniProt P00451 20-812; P00451 1708-2351)” gave a pKd in [6] of 8.89. Further, the fold lower binding affinity compared to wild-type FVIII in series [5] came to 2 fold.

Regarding factor IXa, the “apparent affinity for factor IXa, Xase assay with 15% PS” value in series [7], in series [8] and in [9] was “reduced 5-fold” each time. Besides, the “apparent affinity of factor IXa, Xase assay with saturating PL, 1000 uM” value in series [7], in [8] and in [9] was “decreased approximately 4-fold” throughout.

What is called koff is a measure of how fast the partners let go of each other. As a reminder, the kon is a measure of how fast the partners come together. High values mean fast association, low ones slow association. For “von Willebrand factor (vWF) (from UniProt P04275 764-2813)”, in series [10], the negative logarithm of the Kd (pKd) is 7.53, the koff stood at 0.0042 s⁻¹ and the kon came to 140000 M⁻¹ s⁻¹.

“wild-type FVIII (from UniProt P00451 20-2351)” showed a negative-log Kd (pKd) in series [6] of 9.52.
